B1: TPR t1 (parent)
chain: GACCAAUCUGCCCUCAGAGCUCGAGAACAUCUUCGGAUGCAGAGGAGGCAGGCUUCGGUGGCGCGAUAGCGCCAACGUCCUCAACCUCCAAUGCAUCCCACCACAUGAUGAUGCCUGAAGAGCCUUGGUUUUUUG

Variants of: B1
Experiment: polymerase ribozyme fitness, log enrichment relative to wild type (log ratio); higher = more active; in vitro selection for triplet polymerase activity
How it was run: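 To select mutant libraries of each subunit of a heterodimeric triplet polymerase ribozyme, built by PCR and transcribed, each was annealed with a biotinylated primer, partner subunit and triplets, then incubated frozen at −7 °C. Extended constructs were gel-excised, captured on streptavidin beads and amplified by RT-PCR, in one round carried out in triplicate. Illumina sequencing of input and output libraries kept genotypes with ≥10 input reads and ≥1 read per output. Fitness is the base-2 logarithm of genotype enrichment relative to wild-type enrichment, from inverse-variance-weighted replicate averages.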

Row | Variant | polymerase ribozyme fitness (log ratio)
1 | A18C C28U | -5.11
2 | C86U C94A U106G | -3.23
3 | C3G A41C | -3.54
4 | U9A C86A C98U | -0.22
5 | C22A C86G C114U | -5.23
6 | G44C C80U C88A | -2.94
7 | G17A G48U G57C G60A | -2.98
8 | A41C G45U C124A U126G | -1.66
9 | C73G C115A | -1.04
10 | A6U U7C C70A C76G | -2.57
11 | U9C A68G C86A C99A | -6.98
12 | C114U A118G | -2.12
13 | A84U C124A | 1.73
14 | C8A A74C G93C U116A | -2.46
15 | A74C G110A | -1.2
16 | U33C C79G A111U | -7.17
17 | G47U G127C U130C | -2.06
18 | G61A G120A C123U | 1.5
19 | C34U G63C A100U A111C | -5.4
20 | G52A G117C | -2.77
21 | C4G G44U U96A | -4.42
22 | A46G G58C C99U C114G | -6.59
23 | A37U A41U A50C C115U | -4.64
24 | A18G G36A U116C A118G | -2.17

Row | Variant | polymerase ribozyme fitness (log ratio)
25 | A2C G61A | -1.72
26 | C114U G122A | -2.83
27 | U21A | -0.29
28 | G10A G69U C79U C98A | -2
29 | U9G U54G G58C C73U | -0.715
30 | A16U G36A A41U C73A | -4.17
31 | U21A A50U C73U C76G C89A | -4.66
32 | U81C A121G | 0.253
33 | U55A G93A A121U | 1.57
34 | U87A G120C U131G | 1.11
35 | U87C G117A | -1.27
36 | A46G G127A | -1.96
37 | C62A U87C | -0.344
38 | G45C C53A G120A U129G | -1.07
39 | G48U C72G G122A | -2.3
40 | C15G G77C | -2.39
41 | G10U A27G U106C C123A | 0.556
42 | C80A C86G | -5.2
43 | A84U C88A | -1.4
44 | A41C C70U C85U | -2.92
45 | C28G G52A C70U C86U C101U G110A U131G | -2.57
46 | C104U A118U U131A | 0.243
47 | G47U G58C | -0.433
48 | G10C A16G A26U C72U C98U C115G | -6.74

Row | Variant | polymerase ribozyme fitness (log ratio)
49 | A41U G45A C56A G113A | -3.04
50 | U14A A111G U130A | -3.57
51 | G10C C11U C20U G48A C82U | -3
52 | C3U A24G G47C | -3.61
53 | C56U U87A | -0.176
54 | A27U A29C | -4.78
55 | C62U C80G | -6.35
56 | A29G C56G | -1.53
57 | A27G C85A | -3.2
58 | U9G A27U | -3.6
59 | U9A A103G | -3.9
60 | G36C G61U A95C | -2.42
61 | C13U G128C | -1.81
62 | C28G G69U A121C | 0.386
63 | A43U U106A A118U | -1.2
64 | G17U A74U | -3.16
65 | C56G C86U | 0.0765
66 | C49G C115U | -1.48
67 | U7G C53A A91U C101G | -4.34
68 | U67C G120U | -4.12
69 | G42C C62U | -2.97
70 | U59C G113U | -3.62
71 | A43C C88U | -2.23
72 | A26U G36U C101U | -5.32

Row | Variant | polymerase ribozyme fitness (log ratio)
73 | G47A C72G | -0.62
74 | G71C U130A | -1.3
75 | C12U C73A C97G C104U | -2.89
76 | U55C U125A | -1.11
77 | C56A A83C | -0.237
78 | C8G C20A C72U G77A | -1.87
79 | U55G C79A C82U | -1.09
80 | A27G U55A | -2.6
81 | A95U G127A | -2.95
82 | U9A A24G G42A G52C C72A | -3.17
83 | A5C U9C C86U A100U G135U | -1.74
84 | G19A G61A U132C | -2.94
85 | A84G U109G | -5.8
86 | C102A C114U | -3.69
87 | A50C A100C C104U G120C G127U | 0.167
88 | C8G C53U | 0.216
89 | C4U C72A A100U | -1.48
90 | U92A | -2.8
91 | C15A G39A G69A U87G U112G | -4.24
92 | C72U C89A | -1.22
93 | A18U U96C U112A | -1.44
94 | C40A G60U A91G G135C | -4.18
95 | C72U G93U A111G | -2.76
96 | A16U C114U | -4.86

Row | Variant | polymerase ribozyme fitness (log ratio)
97 | C13G A37U | -1.57
98 | G10A G42U C49A G61C C98A U112G U130G | -7.46
99 | C53U G69U | 0.587
100 | C123G G127A | -0.249
101 | A37G A50C G57A G117C | -6.92
102 | U54A C94A G113U | -3.97
103 | G19A G71C C124A | -2.56
104 | C73A G128A | -2.12
105 | G42U C94U U126A U129G | -5.24
106 | C72G C88U U92A | -3.52
107 | G52C C56U U78G G128C | -2.87
108 | G63A U106A U133G | -1.47
109 | U7C C8G C53G C101A | -0.517
110 | A46C U87A G110C | -3.24
111 | C40U C104A A119G | -1.84
112 | A5C C12G U14A G63U | -2.95
113 | G42U G122A | -1.66
114 | C3U C70U G110A | -2.71
115 | C28A C73A | -4.02
116 | G45C C82U G93A C101U | -1.84
117 | C3A C12U | -0.986
118 | U59G G61U | -0.648
119 | C12A C15G C101U | -3.16
120 | A29C A37G G47U C72U C101U G110U | -6.59

Row | Variant | polymerase ribozyme fitness (log ratio)
121 | U54G C86U G117U | -2.55
122 | C8U G57U U78A C104A | -1.43
123 | G36U G39C C124G | -0.0867
124 | U54G G69U G117U | -3.75
125 | G51C C79U | -3.54
126 | A27C G61A | -4.32
127 | G77A A121U | 1.88
128 | U7G G58C U106A G128A | -0.568
129 | A108U | -4.97
130 | C8U G93A G110U G127C | -2.37
131 | G45U U96C | -1.43
132 | C8G C73A | 1.91
133 | G57C C89G | -0.917
134 | A29U U81C C124A | -0.606
135 | A100U U133G | -0.612
136 | U7G G110U | -0.723
137 | A16U C79G | -2.59
138 | C13G C53G G93C C101A | -3.63
139 | C22U G60A U96G | -4.57
140 | U55A G57A U112G | -0.322
141 | U54C C80A U125A | -2.52
142 | U7C C62U | -1.11
143 | C20U U112G | -1.11
144 | A37G A50U C94U C104U G117C | -5.89

Row | Variant | polymerase ribozyme fitness (log ratio)
145 | G61A C64U C86A | -4.48
146 | G39U C123A | -0.855
147 | G93U U96A | -2.6
148 | A50U G63C | -1.63
149 | A24U C49G C64A C104U C123G | -6.64
150 | U7C A18U C53U G60U G61U | -4.77
151 | U55C G61A U125A | -0.857
152 | G44A G48U C53A G60U | -1.14
153 | G61C C102U | -3.06
154 | G19C U130C | -2
155 | C94A C124A U125C U131A | -0.191
156 | C20G A46U | -4.99
157 | G93C G122A | -0.79
158 | C115A A119U | -1.26
159 | A2U C62U | -2.96
160 | G10A U55G | -0.319
161 | A41C G52A C82G C97U C101G A118U A121U | -2.61
162 | A6C C11U G61U G113U | -4.99
163 | G45A A105G | -3.69
164 | C8U C34G | -5.47
165 | A68C | -6.94
166 | C76A A95U C115U | -4.9
167 | C49G C56U | -0.51

Source: the RNAGym collection of RNA variant scans (doi:10.1073/pnas.2313332121)
